Measured values: article PMC10706272, “Improving the Thermostability of Thermomyces lanuginosus Lipase by Restricting the Flexibility of N-Terminus and C-Terminus Simultaneously via the 25-Loop Substitutions” (International Journal of Molecular Sciences, 2023)

Substrate: CCCCCCCCCCCCCCCC(=O)Oc1ccc([N+](=O)[O-])cc1
Experiment: initial-rate hydrolysis of pNPP, p-nitrophenol release, Michaelis-Menten fit
Type: biochemical, Thermomyces lanuginosus
Conditions: 37 °C, pH 9.0, Tris-HCl 100 mM, apparent Km, pNPP 0.25-10 mM
Source text: initial-rate hydrolysis of pNPP, p-nitrophenol release, Michaelis-Menten fit on TLL (Thermomyces lanuginosus lipase)

B1: TLL (Thermomyces lanuginosus lipase) (Thermomyces lanuginosus) (protein)
chain: EVSQDLFNQFNLFAQYSAAAYCGKNNDAPAGTNITCTGNACPEVEKADATFLYSFEDSGVGDVTGFLALDNTNKLIVLSFRGSRSIENWIGNLNFDLKEINDICSGCRGHDGFTSSWRSVADTLRQKVEDAVREHPDYRVVFTGHSLGGALATVAGADLRGNGYDIDVFSYGAPRVGNRAFAEFLTVQTGGTLYRITHTNDIVPRLPPREFGYSHSSPEYWIKSGTLVPVTRNDIVKIEGIDATGGNNQPNIPDIPAHLWYFGLIGTCL
Km: 220 ± 50 µM | Vmax: 402 µmol/min/mg | kcat: 594 ± 4 s⁻¹ | kcat/Km: 2.72e+06 ± 54000 M⁻¹ s⁻¹
